Data reported in patent EP1508806A1.

Columns and labels:
[1] = target: regulatory p85α subunit of bovine PI 3-kinase (recombinant, GST part removed with thrombin) (bovine) (UniProt P23727); test: SPR competition: soluble peptide against the same peptide immobilised, 100 nM p85α
[2] = target: rIRS-1 449-664 S570A GST fusion protein, pretreated with PKC-ζ (rat) (UniProt P35570); test: cell-based or functional assay
[3] = target: rIRS-1 449-664 S612A GST fusion protein, pretreated with PKC-ζ (rat) (UniProt P35570); test: cell-based or functional assay
[4] = target: rIRS-1 449-664 GST fusion protein, phosphorylated in vitro by PKC from rat brain (rat) (UniProt P35570); test: cell-based or functional assay
[5] = target: GST fusion protein containing amino acids 449-664 of rat IRS-1 (rIRS-1 449-664), not phosphorylated (rat) (UniProt P35570); test: cell-based or functional assay
[6] = target: rIRS-1 449-664 GST fusion protein, phosphorylated in vitro by PKC-ζ (rat) (UniProt P35570); test: cell-based or functional assay
[7] = target: rIRS-1 449-664 GST fusion protein, pretreated with PKC from rat brain and then tyrosine phosphorylated by insulin receptor (rat) (UniProt P35570); test: GST pull-down, anti-p85α immunoblot quantified; against the insulin-stimulated value without PKC-rb set as 100%
[8] = target: rIRS-1 449-664 GST fusion protein, pretreated with PKC-ζ and then tyrosine phosphorylated by insulin receptor (rat) (UniProt P35570); test: GST pull-down, anti-p85α immunoblot quantified; against the insulin-stimulated value without PKC-ζ set as 100%
[9] = target: rIRS-1 449-664 S570A GST fusion protein, pretreated with PKC-ζ and then tyrosine phosphorylated by insulin receptor (rat) (UniProt P35570); test: GST pull-down, anti-p85α immunoblot quantified; relative to the insulin-stimulated control value set as 100%
[10] = target: rIRS-1 449-664 S612A GST fusion protein, pretreated with PKC-ζ and then tyrosine phosphorylated by insulin receptor (rat) (UniProt P35570); test: as above

UniProt P23727, sequence (P23727 whole entry, the tested form may be a part): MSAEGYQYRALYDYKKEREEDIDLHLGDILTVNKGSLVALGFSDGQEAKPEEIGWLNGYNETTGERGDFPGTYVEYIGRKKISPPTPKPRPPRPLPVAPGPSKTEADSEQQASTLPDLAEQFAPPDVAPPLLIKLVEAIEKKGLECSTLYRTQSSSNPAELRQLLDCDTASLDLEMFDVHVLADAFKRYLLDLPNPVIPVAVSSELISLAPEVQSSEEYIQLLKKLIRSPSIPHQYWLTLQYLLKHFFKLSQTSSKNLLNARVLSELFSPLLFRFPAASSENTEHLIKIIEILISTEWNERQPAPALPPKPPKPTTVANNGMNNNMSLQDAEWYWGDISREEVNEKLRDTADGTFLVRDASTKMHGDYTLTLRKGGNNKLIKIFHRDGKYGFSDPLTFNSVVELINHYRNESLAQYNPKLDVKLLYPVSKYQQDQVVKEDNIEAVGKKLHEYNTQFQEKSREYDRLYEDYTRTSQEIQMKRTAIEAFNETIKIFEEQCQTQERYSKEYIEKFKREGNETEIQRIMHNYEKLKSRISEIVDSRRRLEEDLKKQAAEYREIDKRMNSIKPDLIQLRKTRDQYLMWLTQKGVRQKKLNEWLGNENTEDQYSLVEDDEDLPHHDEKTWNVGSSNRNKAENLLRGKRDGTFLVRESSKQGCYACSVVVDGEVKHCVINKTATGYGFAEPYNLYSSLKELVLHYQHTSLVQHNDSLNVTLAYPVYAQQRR

Substance: IRS-1 peptide pY608, DDGpYMPMSPGV (amino acids 605 to 615 of rat IRS-1, phosphotyrosine 608)
- peptide concentration for complete inhibition [1]: 10 µM

Substance: IRS-1 peptide pY608-pS612, DDGpYMPMpSPGV (amino acids 605 to 615 of rat IRS-1, phosphotyrosine 608 and phosphoserine 612)
- peptide concentration for complete inhibition [1]: 10 µM

Substance: insulin receptor, WGA-purified from rat liver, insulin-stimulated and autophosphorylated (from UniProt P15127 27-1383)
- reduction of tyrosine phosphorylation by IR after PKC-ζ pretreatment [2]: 30 to 40%
- reduction of tyrosine phosphorylation by IR after PKC-ζ pretreatment [3]: 30 to 40%
- reduction of insulin-stimulated Tyr-phosphorylation of rIRS-1^449-664 after PKC-rb pretreatment [4]: 27%
- insulin-stimulated tyrosine phosphorylation of rIRS-1^449-664 (anti-phosphotyrosine immunoblot) [5]: 8.8 fold
- inhibition of tyrosine phosphorylation of rIRS-1^449-664 after PKC-ζ pretreatment [6]: 46%
- reduction of tyrosine phosphorylation by IR after PKC-ζ pretreatment [6]: 30 to 40%

Substance: regulatory p85α subunit of bovine PI 3-kinase (recombinant, GST part removed with thrombin) (from UniProt P23727 1-724)
- percent inhibition of the association of p85α [7]: 49%
- percent inhibition of p85α binding [8]: 81%
- p85α binding, percent of control [9]: 43%
- p85α binding, percent of control [10]: 28%
